Measured values: paper PMC7937711, “Development and Characterization of Nanobodies Targeting the Kupffer Cell” (Frontiers in Immunology, 2021)

T1: recombinant mouse Clec4F (CLEC4F/CLECSF13), soluble extracellular domain Ala65-Gly548 (mouse) (UniProt P70194)
T1 sequence: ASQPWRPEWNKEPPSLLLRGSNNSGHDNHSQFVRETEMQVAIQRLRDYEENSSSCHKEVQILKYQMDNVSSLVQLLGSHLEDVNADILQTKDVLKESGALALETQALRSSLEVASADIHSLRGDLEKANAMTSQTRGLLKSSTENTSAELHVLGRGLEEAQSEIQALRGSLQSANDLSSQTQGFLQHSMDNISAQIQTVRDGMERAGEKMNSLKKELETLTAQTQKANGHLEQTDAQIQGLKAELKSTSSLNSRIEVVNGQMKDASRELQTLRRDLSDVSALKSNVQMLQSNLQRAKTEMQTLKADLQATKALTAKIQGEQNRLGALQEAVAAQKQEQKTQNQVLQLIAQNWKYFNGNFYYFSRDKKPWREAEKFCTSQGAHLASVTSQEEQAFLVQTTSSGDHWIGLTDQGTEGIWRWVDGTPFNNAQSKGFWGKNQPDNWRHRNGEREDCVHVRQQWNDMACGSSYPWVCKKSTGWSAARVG


biological target: T1, recombinant mouse Clec4F (CLEC4F/CLECSF13), soluble extracellular domain Ala65-Gly548 (mouse); assay: SPR; Biacore T200; 400 RU of recombinant mouse Clec4F coupled to a CM5 chip; nanobodies flown at 30 ul/min at 1-400 nM; 1:1 binding model; conditions: not given

koff	kon	Binder
0.0606 s⁻¹	3.06e+07 M⁻¹ s⁻¹	Nb14.70 (VHH) VHH: QVQLVESGGGLVQAGDSLSLVCTLPERSRFAVGWFRQASGKEREIVAAISWLGMNEYYGDSVKGRSTISRDNAKNTVRLQMDSLKREDTAVYYCAADYSLDNVRRTPRFWGQGTQVTVSS

biological target: T2, recombinant mouse Clec4F (CLEC4F/CLECSF13), soluble extracellular domain Ala65-Gly548 (Mus musculus, UniProt P70194); assay: not given; conditions: not given

binding result	Binder
binds	Nb 4.39 (VHH) VHH: DVQLVESGGGLVQPGGSLRLSCAASGSNVDIATISWYRQGTGNQREFVAYITPRGNTLYGASVTGRFTISRDNAKNTVYLQMNSLRFDDTAVYYCNVARLGRNYWGQGTQVTVSS
binds	Nb 10.63 (VHH) VHH: QVQLVESGGGLVQAGGSLRLSCAASGRTFSDYNMGWFRQAPGKEREFVATISRSGAGTYYTDSVKGRFTISRDNAKNTVYLQMNNLKPEDSAAYYCAATLRVALSTITVGGYDYWGQGTQVTVSS
binds	Nb 7.24 (VHH) VHH: QVQLVESGGGLVQPGGSLRLSCAASGFTLDYYAIGWFRQAPGKEREGVSCIASDGGSTKYADSVKGRFTISRDSAKNTVYLQMNSLKPEDTAIYYCAAGRPGYCSGYALKEIYPYRDWGQGTQVTVSS

biological target: T2, recombinant mouse Clec4F …; assay: SPR; epitope binning: Clec4F immobilised on the chip; 1st nanobody injected (50 nM) to saturation, then a mix of 1st and 2nd nanobody; extra RU read; conditions: both partners purified

binding result	Binder
binds	Nb6.39 (VHH, also called R3-39; group G6; source: E. coli WK6 periplasm, purified (IMAC Ni-NTA, dialysis)) VHH: QVQLVESGGGLVQPGGSLRLSCAASGFTFSTYAMRWVRQAPGKGLEWVSDINQGGGVTSYRDSVLGRFTISRDDAKNTLYLQMNSLKREDTAVYYCTNGRSRGQGTQVTVSS

biological target: Nb3.60 (alpaca (Vicugna pacos)); assay: SDS-PAGE; 10% SDS-PAGE with Coomassie staining of the nanobody preparations after IMAC and dialysis; conditions: not given

stoichiometry N	Binder
2	Nb3.60 (VHH, The preparation held dimers beside monomers (SDS-PAGE); also called R2-60; group G3; source: E. coli WK6 periplasm, purified (IMAC Ni-NTA, dialysis)) VHH: QVQLVESGGGLVQPGGSLRLSCVASGTIFSMYGVYWYRQAPGNQREVVAWISSSGNTNYVNAVKGRFTISRDNAKNTTWLQMHSLKPEDAAVYYCRLGMNYWGKGTQVTVSS

biological target: Nb1.46 (alpaca (Vicugna pacos)); assay: as above; conditions: not given

stoichiometry N	Binder
2	Nb1.46 (VHH, The preparation held dimers beside monomers (SDS-PAGE); extra cysteine at position 52 (IMGT); also called R2-46; group G1; source: E. coli WK6 periplasm, purified (IMAC Ni-NTA, dialysis); not shown: His6, C-terminal, kept) VHH: QVQLVESGGGLVQAGGSLRLSCAASGRTFSSYAMGWFRQAPGKERECVAAMDWSTSATYYADSVKGRFTISRDNAKNTVYLQMNSLKPEDTAVYYCAADLDYSDYGPFPGDMDYWGKGTQVTVSS

biological target: T2, recombinant mouse Clec4F …; assay: SPR; Biacore T200; 400 RU of recombinant mouse Clec4F coupled to a CM5 chip; nanobodies flown at 30 ul/min at 1-400 nM; 1:1 binding model; conditions: both partners purified

Binder	Kd	koff	kon
Nb9.15 (VHH, also called R3-15; group G9; source: E. coli WK6 periplasm, purified (IMAC Ni-NTA, dialysis)) VHH: QVQLVESGGGLVQPGGSLRLSCAASGFSLASRTIAWFRQAPGKEREGVSCISRSGAFTNNADSVKGRFTISRDNAKNTVYLQMNSLKPEDTADYYCAVTSSWYSTCLRESIYDSWGQGTQVTVSS	26700 pM	0.0317 s⁻¹	1.19e+06 M⁻¹ s⁻¹
Nb11.28 (VHH, also called R3-28; group G11; source: E. coli WK6 periplasm, purified (IMAC Ni-NTA, dialysis)) VHH: QVQLVESGGGLVQAGASLRLSCAASGGTFSNYRMAWFRQAPGKEREFVSLITRSGGSTYYADSVKGRFTISRDNAQNTVSLQMNTLKPEDTAVYTCAATPRFDSGSYYTRTNGYDYWGQGTQVTVSS	1200 pM	0.00654 s⁻¹	5.43e+06 M⁻¹ s⁻¹
Nb3.60 (VHH, The preparation held dimers beside monomers (SDS-PAGE); also called R2-60; group G3; source: E. coli WK6 periplasm, purified (IMAC Ni-NTA, dialysis)) VHH: QVQLVESGGGLVQPGGSLRLSCVASGTIFSMYGVYWYRQAPGNQREVVAWISSSGNTNYVNAVKGRFTISRDNAKNTTWLQMHSLKPEDAAVYYCRLGMNYWGKGTQVTVSS	618 pM	0.00475 s⁻¹	7.69e+06 M⁻¹ s⁻¹
Nb11.20 (VHH, also called R2-20; group G11; source: E. coli WK6 periplasm, purified (IMAC Ni-NTA, dialysis)) VHH: QVQLVESGGGLVQTGGSLRLSCAASGRTVSSYRMGWFRQAPGKEREFVCMITRSGFKTYCNDSVKGRFTISRDVAVNTVNLQMNSLKPEDTADYYCAATERWGTTATMTTANDYDYWGQGTQVTVSS	403 pM	0.00139 s⁻¹	3.46e+06 M⁻¹ s⁻¹
Nb10.21 (VHH, also called R2-21; group G10; source: E. coli WK6 periplasm, purified (IMAC Ni-NTA, dialysis)) VHH: QVQLVESGGGLVQAGGSLRLSCAASGRTFSSYNMGWFRQAPGKEREFVATISRNGAGTYYTDSVKGRFTISRDNAKNTVYLQMNNLKPEDSAAYYCAATQRVALSTITVGGYEYWGQGTQVTVSS	484 pM	0.00223 s⁻¹	4.62e+06 M⁻¹ s⁻¹
Nb10.16 (VHH, Labelled with 99mTc through its His tag for the biodistribution test only; also called R2-16; group G10; source: E. coli WK6 periplasm, purified (IMAC Ni-NTA, dialysis; size exclusion chromatography for the later tests); not shown: His6, C-terminal, kept) VHH: DVQLVESGGGLVEPGGSLRLSCAASGRTFSDYNMGWFRQAPGKEREFVATISRNGAGSYYTDSVKGRFTISRDNAKNTVYLQMNNLKPEDSAAYYCAATLRVALSTITVGGYDYWGQGTQVTVSS	524 pM	0.000825 s⁻¹	1.58e+06 M⁻¹ s⁻¹
Nb10.17 (VHH, also called R3-17; group G10; source: E. coli WK6 periplasm, purified (IMAC Ni-NTA, dialysis)) VHH: QVQLVESGGGLVQAGGSLRLSCAASGRTFDSYNMGWFRQAPGKEREFVATISRSGAGTYYTDSVKGRFTISRDNAKNTMYLQMNNLKPEDSAAYYCAATLRVALSTITVGGYDIWGQGTQVTVSS	174 pM	0.00158 s⁻¹	9.08e+06 M⁻¹ s⁻¹
Nb8.37 (VHH, Labelled with 99mTc through its His tag for the biodistribution test only; also called R3-37; group G8; source: E. coli WK6 periplasm, purified (IMAC Ni-NTA, dialysis; size exclusion chromatography for the later tests); not shown: His6, C-terminal, kept) VHH: QVQLVESGGGLVQPGGSLRLSCAASGLTLDYLRIAWFRQAPGKKRERVSCISITEGSANYADSVKGRFTISRDNAKNTVFLQMNSLKPEDTAVYYCAARRYYCSGTPTDYAYWGQGTQVTVSS	790 pM	0.00124 s⁻¹	1.57e+06 M⁻¹ s⁻¹
Nb6.19 (VHH, also called R2-19; group G6; source: E. coli WK6 periplasm, purified (IMAC Ni-NTA, dialysis)) VHH: DVQLVESGGGLVQPGGSLRLSCAASGFTLSTYAMRWVRQAPGKGLEWVSDINSGGDVMSYRDSVKGRFTISRDDAKNTLYLQMNSLKPEDTAVYYCTNGWSRGQGTQVTVSS	470 pM	0.000612 s⁻¹	1.3e+06 M⁻¹ s⁻¹
Nb6.3 (VHH, also called R3-3; group G6; source: E. coli WK6 periplasm, purified (IMAC Ni-NTA, dialysis)) VHH: QVQLVESGGGLVQPGGSLRLSCAASGFTFSSYAMRWVRQAPGKGLEWVSDINKGGSGTSYRDSVKGRFTISRDDAKNTLYLQMNSLKPEDTAVYYCTNGGSRGQGTQVTVSS	296 pM	0.000848 s⁻¹	2.87e+06 M⁻¹ s⁻¹
Nb6.18 (VHH, also called R3-18; group G6; source: E. coli WK6 periplasm, purified (IMAC Ni-NTA, dialysis)) VHH: DVQLGESGGGLVQPGGSLRLSCAASGFTFSSYAMRWVRQAPGKALEWVADINSSGAYTNYRDSVTGRFIISRDNVKNTLYLQMDNMKPEDTAVYYCTTGGQRGQGTQVTVSS	510 pM	0.000756 s⁻¹	1.48e+06 M⁻¹ s⁻¹

Further lines, results first:

Kd	koff	kon	Binder
169 pM	0.00392 s⁻¹	2.32e+07 M⁻¹ s⁻¹	Nb11.16 (VHH, also called R3-16; group G11; source: E. coli WK6 periplasm, purified (IMAC Ni-NTA, dialysis)) VHH: QVQLVESGGGLVQAGGSLRLSCVASGGTFSNYRMAWFRQAPGKEREFVSLITRSGGSTYYADSVKGRFTISRDNAKNTVSLQMNTLKPEDTAVYTCAATPRFDSYSNYIRTNGYDYWGQGTQVTVSS
314 pM	0.00135 s⁻¹	4.28e+06 M⁻¹ s⁻¹	Nb10.66 (VHH, also called R2-66; group G10; source: E. coli WK6 periplasm, purified (IMAC Ni-NTA, dialysis)) VHH: DVQLVESGGGLVQAGGSLRLSCAASGRTFSDYNMGWFRQAPGKEREFVATISRSGGGTYYSDSVKGRFTISRDNAKNTVYLQMNNLKPEDSAAYYCAATLRVALSTITVGGYNYWGQGTQVTVSS
1110 pM	0.0031 s⁻¹	2.79e+06 M⁻¹ s⁻¹	Nb13.12 (VHH, also called R3-12; group G13; source: E. coli WK6 periplasm, purified (IMAC Ni-NTA, dialysis)) VHH: QVQLVESGGGLVQDEGSLRLSCAASGLIFSNYIVGWFRQTPGKEREFVAAIRWGGTSSYYSDSVKGRFTVSRDNAKNTLYLQMNNLKPEDTAVYYCATGPYYRGDYRVPDNMDYWGKGTQVTVSS
268 pM	0.00221 s⁻¹	8.24e+06 M⁻¹ s⁻¹	Nb2.22 (VHH, Labelled with 99mTc through its His tag for the biodistribution test only; also called R3-22; group G2; source: E. coli WK6 periplasm, purified (IMAC Ni-NTA, dialysis; size exclusion chromatography for the later tests); not shown: His6, C-terminal, kept) VHH: QVQLVESGGGLVQAGGSLRLSCAASGATFITYGMTWFRQAPGKEREFVAAVTGNGAGTTYLPSVKGRFTISRDNAKNTVYLQMSSLKPEDTAVYYCGGRRWVPATAVDQVAYWGQGTQVTVSS
2000 pM	0.00231 s⁻¹	1.16e+06 M⁻¹ s⁻¹	Nb6.4 (VHH, also called R3-4; group G6; source: E. coli WK6 periplasm, purified (IMAC Ni-NTA, dialysis)) VHH: QVQLVESGGGLVQPGGSLTLSCAASGFTISNYAMKWDRQAPGKGFEWVSTINSDGDNTSYRDSVKGRFTISRDNAKNTLYLQMNSLKPEDTAVYYCSNGGRRGQGTQVTVSS

biological target: T2, recombinant mouse Clec4F …; assay: as above; conditions: both partners purified; remark: another data set of the same source

binding result	Binder
binds	Nb5.10 (VHH, also called R3-10; group G5; source: E. coli WK6 periplasm, purified (IMAC Ni-NTA, dialysis)) VHH: QVQLVESGGGLVQPGGSLRLSCAANVSSFRFAAMGWYRQVQGKRRELVATITRDGVSNYVEPMKGRFTISRDNGKNTVYLQMNHLQPEDTAVYYCAAKISPFGGTWTPDYWGQGTQVTVSS
binds	Nb12.75 (VHH, also called R2-75; group G12; source: E. coli WK6 periplasm, purified (IMAC Ni-NTA, dialysis)) VHH: QVQLVESGGGLVQAGGSLRLSCAASLRTFSNAMGWFRQAPGKEREFVAVITWSGRVTNYSDSVKGRFTISKDNAKNTMYLQMNSLKLEDTAVYFCARESTFATANPKDYAYWGQGTQVTVSS
binds	Nb1.46 (VHH, The preparation held dimers beside monomers (SDS-PAGE); extra cysteine at position 52 (IMGT); also called R2-46; group G1; source: E. coli WK6 periplasm, purified (IMAC Ni-NTA, dialysis); not shown: His6, C-terminal, kept) VHH: QVQLVESGGGLVQAGGSLRLSCAASGRTFSSYAMGWFRQAPGKERECVAAMDWSTSATYYADSVKGRFTISRDNAKNTVYLQMNSLKPEDTAVYYCAADLDYSDYGPFPGDMDYWGKGTQVTVSS
